This is an account of results in patent publication US20250011423A1 (ASCENDO BIOTECHNOLOGY, published 2025).

What is called EC50 is the concentration giving half of the maximal effect. A high value points to weaker potency.

Experiment [1] addresses T1, human TREML1 ECD (human, UniProt Q86YW5 16-162).
T1 construct: Any tags are not described; also called soluble TREML1; soluble TLT1
T1 sequence: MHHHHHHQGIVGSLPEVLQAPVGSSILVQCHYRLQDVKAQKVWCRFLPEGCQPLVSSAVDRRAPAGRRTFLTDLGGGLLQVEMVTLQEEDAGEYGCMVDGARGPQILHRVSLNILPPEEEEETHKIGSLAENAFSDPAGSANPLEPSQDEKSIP
Put plainly: solid phase binding assay (ELISA), antigen coated. The protocol:
(§1) To investigate the TREML1/I-domain of CD11 b interaction, 5 μg/ml of recombinant I-domain of CD11 b (SEQ ID: 1) and BSA (negative control) proteins were coated separately on 96 well plates and incubated overnight at 4° C. Plates were added the blocking buffer (2% BSA in PBS) to avoid the nonspecific binding for 2 hours (hrs) at room temperature. A serial diluted TREML1 ECD was added and allowed to incubate at room temperature for 2 hrs. 1ug/ml of anti-TREML1 antibody (MAB2394, R&D systems) was added for 1 hr. Next, the secondary antibody with HRP labeling, anti-Rat IgG-HRP, was added to the plate and incubated for 30 minutes at room temperature. Plates were washed thrice with 0.05% tween 20 PBS buffer (PBST) between each step. Finally, TMB substrate was added and incubated for 10-15 min to detect HRP labeling antibody. After that, a stop solution of 1N HCL was added to stop the reaction. Absorbance at OD450/540 nm was measured by a microplate reader. To measure the half-maximal saturation binding of anti-TREML1 antibodies to TREML1, 5 μg/ml of human TREML1 ECD (SEQ ID: 2) or mouse TREML1 ECD (SEQ ID: 3) were coated on 96 well plates and incubated overnight at 4° C. Plates were added the blocking buffer (2% BSA in PBS) to avoid the nonspecific binding for 2 hr at room temperature. A serial diluted anti-TREML1 antibody was added and allowed to incubate at room temperature for 2 hr. Next, the secondary antibody with HRP labeling, anti-mouse IgG-HRP, was added to the plate and incubated for 30 minutes at room temperature. Plates were washed three times with 0.05% tween20 PBS buffer (PBST) between each step. Finally, TMB substrate was added and incubated for 10-15 min to detect HRP labeling antibody. After that, a stop solution of 1N HCL was added to stop the reaction. Absorbance at OD450/540 nm was measured by a microplate reader.
(In general: An ELISA detects its analyte on a solid surface through an enzyme-linked reagent.)

The target in experiment [2] is T2, mouse TREML1 ECD (mouse, UniProt Q8K558 21-175).
T2 construct: also called murine TREML1 ECD
T2 sequence: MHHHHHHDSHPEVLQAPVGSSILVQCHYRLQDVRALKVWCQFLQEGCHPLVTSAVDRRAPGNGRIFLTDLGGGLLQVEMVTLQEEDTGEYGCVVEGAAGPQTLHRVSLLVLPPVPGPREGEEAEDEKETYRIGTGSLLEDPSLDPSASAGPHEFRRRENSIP
Put plainly: solid phase binding assay (ELISA), antigen coated. The protocol: as §1

B1: Anti-TREML1 Antibody Clone 23F10 (antibody, V domains shown)
VH: EVQLQQSGPELVRPGASVKVSCKASGYIFTDYVIHWVKQKPGQGLEWFGYINPYTGGPKYSETARGKATLTSDSSSNTAYMVLTSLTSDDSAVYYCTRDFNYYVGAMDFWGQGTSVTVSS
VL: AAVLTQTPLSLPVSLGDQASISCRSTQSLVHSNGNTYVHWYLQKAGQSPKLLIYKVSNRFSGVPDRFSGSGSGTDFTLKISRVEAEDLGVYFCSQSTYVWTFGGGTKLEIE
notes: It was detected with anti-mouse IgG
In the case of B1, the EC50 came out at 0.27 nM in experiment [1] and 0.82 nM in experiment [2].

B2: Anti-TREML1 Antibody Clone 29F4 (antibody, V domains shown)
VH: EVQLQQSGPELVRPGASVKVSCKASGYIFTDYVIHWVKQKPGQGLEWFGYINPYTGGPKYSETAKGKATLTSDSSSNTAYMVLTSLTSEDSAVYYCTRDFNYYVGAMDFWGQGTSVTVSS
VL: GAVLTQTPLSLPVSLGDQASISCKSTQSLVHSNGNTYVHWYLQKAGQSPKLLIYKVSNRFSGVPDRFIGSGSGTDFTLKISRVEAEDLGVYFCSQSTYVWTFGGGTKLEIE
notes: as for B1
As to B2, the 50% effective concentration (EC50) in experiment [1] amounted to 0.18 nM; in experiment [2], 0.94 nM.

B3: Anti-TREML1 Antibody Clone 26A6 (antibody, V domains shown)
VH: EVKLVESGGGLVQPGGSRKLSCAASGFTFSDYGMAWVRQAPGKGPEWIAFISNLAYRIYYADTVTGRFTISRENAKNTLYLEMSSLRSEDSAIYYCVREDYGNNGAMDYWGQGTSVTVSS
VL: DVLMTQTPLSLPVSLGDQASISCRSSQSIVHSNGNTYLEWYLQKPGQSPKLLIYKVSNRFSGVPDRFSGSGSGTDFTLKISRVEAEDLGVYYCFQGSHVPPTFGGGTKLEIK
notes: It was detected with anti-mouse IgG, so it is a mouse antibody
Regarding B3, the results for the EC50 in experiment [1] and in experiment [2] were 0.32 nM and 0.4 nM, respectively.

B4: Anti-TREML1 Antibody Clone 18D8 (antibody, V domains shown)
VH: EVQVQQSGPELVNPGASVRLSCKASGYIFTDYVIHWVRQKPGQGLEWIGYMNPYTDGPKYSDKIKDKAILTSDRSSNTVYMELRSLTSEDSAVYFCARDFNYYVGAMDFWGQGTSVTVSS
VL: DVVLTQTPLSLPVSLGDQASVSCRSSQSLLHSNGNTYLHWYLQKPGQSPKLLIYKVSNRFSGVPDRFTGSGSGTDFTLKISRVEAEDLGVYFCSQSTHIWTFGGGTKLEIK
notes: as for B1
For B4, the 50% effective concentration (EC50) in experiment [1] was 0.25 nM; in experiment [2], 33.4 nM.

B5: Anti-TREML1 Antibody Clone 27D3 (antibody, V domains shown)
VH: DVQLQQSGPELVKPGASVKMSCKASGYTFTEYVIHWVKQRPGQGLEWFGYFNPYTGGSKFNEKFKDKATLTSDRSSNTVYMELYSLTSEDSAVYYCARDFNYYVGAMDYWGQGTSVTVSS
VL: DVALTQTPLSLPVSLGDQASISCRSSQSLVHSNGNTYLHWYLQKSGQSPKLLIYKVSNRFSGVPDRFSGSGSVTEFTLKISRVEAEDLGVYFCSQSSHIWTFGGGTRLEIK
notes: as for B1
Regarding B5, the EC50 in experiment [1] came to 0.31 nM; in experiment [2] it was 24.9 nM.

B6: Anti-TREML1 Antibody Clone 28A9 (antibody, V domains shown)
VH: EVQLQQSGPELVKPGASVKMSCKASGYTFTNYVMHWVKQKPGQGLEWIGYFNPYNGHAKYSEKFTGKATLTSDRSSSTAYMELNSLTSEDSAVYYCTRDFNYYVGAMDYWGQGTSVTVSS
VL: DVVMTQSPLSLPVNLGDHASISCRSSQSLIHSNGNTYLHWYLQKPGQSPKLLVYQVSKRFSGVPDRFSGSGSGTDFTLKISRVEAEDLGVYFCSQSTHIWTFGGGTTLEIK
notes: as for B1
Consider B6, for which the EC50 in experiment [1] worked out at 0.3 nM; in experiment [2] it was 2.48 nM.
